Holding throughout (conditions): both partners purified
Test [1] deals with T1, Mis12 complex (Mis12C), full length: MIS12, PMF1, NSL1, DSN1 (human, UniProt Q9H081 1-205; Q6P1K2 1-205; Q96IY1 1-281; Q9H410 1-356).
T1 construct: MIS12, human, subunit of the Mis12 complex; PMF1, human, subunit of the Mis12 complex; NSL1, human, subunit of the Mis12 complex; DSN1, human, subunit of the Mis12 complex (DSN1^SORT-HIS); In BLI one partner was biotinylated by sortase (GGGG-biotin peptide); also called Mis12C^WT; wild-type Mis12C; source: Tnao38 insect cells (baculovirus from pBIG1A), purified (Talon, SEC); copies: + + +
T1 sequence (looked up) 1: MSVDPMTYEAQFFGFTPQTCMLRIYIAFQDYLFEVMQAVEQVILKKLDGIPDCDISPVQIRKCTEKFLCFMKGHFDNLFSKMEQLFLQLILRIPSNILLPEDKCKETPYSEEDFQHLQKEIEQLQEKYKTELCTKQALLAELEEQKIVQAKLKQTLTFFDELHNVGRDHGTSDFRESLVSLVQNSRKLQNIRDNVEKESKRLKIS
T1 sequence (looked up) 2: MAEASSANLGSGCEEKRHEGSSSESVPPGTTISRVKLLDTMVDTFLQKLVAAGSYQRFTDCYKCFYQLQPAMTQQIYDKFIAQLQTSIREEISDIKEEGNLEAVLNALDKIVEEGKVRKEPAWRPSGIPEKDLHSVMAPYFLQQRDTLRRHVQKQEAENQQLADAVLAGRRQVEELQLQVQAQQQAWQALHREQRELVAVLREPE
T1 sequence (looked up) 3: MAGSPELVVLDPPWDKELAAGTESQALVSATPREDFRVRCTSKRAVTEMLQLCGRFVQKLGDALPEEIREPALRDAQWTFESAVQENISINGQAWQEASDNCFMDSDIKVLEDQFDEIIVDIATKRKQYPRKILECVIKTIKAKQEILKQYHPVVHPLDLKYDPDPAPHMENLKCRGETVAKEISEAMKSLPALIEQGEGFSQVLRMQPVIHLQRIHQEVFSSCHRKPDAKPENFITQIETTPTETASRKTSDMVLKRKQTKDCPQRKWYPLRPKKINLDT
T1 sequence (looked up) 4: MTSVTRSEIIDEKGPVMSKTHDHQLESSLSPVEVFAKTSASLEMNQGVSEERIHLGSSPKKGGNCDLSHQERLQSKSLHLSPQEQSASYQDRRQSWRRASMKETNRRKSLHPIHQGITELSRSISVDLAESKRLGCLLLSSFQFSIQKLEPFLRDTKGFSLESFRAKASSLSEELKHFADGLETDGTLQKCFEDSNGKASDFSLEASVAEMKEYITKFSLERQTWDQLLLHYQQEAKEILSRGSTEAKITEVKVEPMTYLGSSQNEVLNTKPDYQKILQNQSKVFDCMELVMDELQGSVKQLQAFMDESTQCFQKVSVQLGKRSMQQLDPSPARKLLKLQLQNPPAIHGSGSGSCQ
The test can be described thus: cryo-EM structure; eight-subunit KMN (full-length Mis12C, SPC24 109–197/SPC25 92–224, ZWINT, KNL1 2,021–2,342), 0.3 mg/ml with 0.003% Triton; reconstruction at 4.5 Å; model fitted from known structures and AF2 predictions and refined against the map.

In test [2] the target is T2, NSL1 (subunit of Mis12C in the KMN structure) (human, UniProt Q96IY1 1-281).
T2 construct: NSL1, human; source: Tnao38 insect cells (baculovirus), co-expressed in Mis12C, purified (Talon, SEC)
T2 sequence (looked up): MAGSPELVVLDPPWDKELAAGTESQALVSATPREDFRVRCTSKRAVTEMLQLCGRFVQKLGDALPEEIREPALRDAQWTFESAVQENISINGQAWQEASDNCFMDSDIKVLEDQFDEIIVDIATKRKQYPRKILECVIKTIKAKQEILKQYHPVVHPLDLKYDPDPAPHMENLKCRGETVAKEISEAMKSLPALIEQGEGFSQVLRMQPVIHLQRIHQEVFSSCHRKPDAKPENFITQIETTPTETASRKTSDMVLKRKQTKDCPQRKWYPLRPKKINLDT
Described as above.

Test [3] concerns the target T3, DSN1 (subunit of Mis12C in the KMN structure) (human, UniProt Q9H410 1-356).
T3 construct: DSN1, human; also called DSN1^SORT-HIS; source: Tnao38 insect cells (baculovirus), co-expressed in Mis12C, purified (Talon, SEC)
T3 sequence (looked up): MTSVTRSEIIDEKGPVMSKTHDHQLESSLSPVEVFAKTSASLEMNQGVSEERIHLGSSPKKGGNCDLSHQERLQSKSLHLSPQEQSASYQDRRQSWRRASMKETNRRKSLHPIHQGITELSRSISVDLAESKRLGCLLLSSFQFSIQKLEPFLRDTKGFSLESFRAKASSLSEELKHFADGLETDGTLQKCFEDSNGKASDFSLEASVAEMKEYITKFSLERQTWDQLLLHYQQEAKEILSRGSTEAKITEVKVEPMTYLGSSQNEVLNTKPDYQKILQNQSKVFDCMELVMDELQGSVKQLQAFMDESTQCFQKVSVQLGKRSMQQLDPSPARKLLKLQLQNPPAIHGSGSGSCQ
The description is as above.

Test [4] addresses T1, Mis12 complex (Mis12C), full length: …. The test can be described thus: ITC; PEAQ-ITC; 50 mM HEPES pH 8.0, 150 mM NaCl, 1 mM TCEP; 19 injections; one-site binding fit.
In the next test the target is T4, Mis12C^M5 (NSL1 I216A) (human, UniProt Q9H081 1-205; Q6P1K2 1-205; Q96IY1 1-281; Q9H410 1-356, I216A).
T4 construct: MIS12, human; PMF1, human; NSL1, human, with I216A on the α5 helix; DSN1, human; source: Tnao38 insect cells (baculovirus), purified (Talon, SEC); copies: + + +
T4 sequence (looked up) 1: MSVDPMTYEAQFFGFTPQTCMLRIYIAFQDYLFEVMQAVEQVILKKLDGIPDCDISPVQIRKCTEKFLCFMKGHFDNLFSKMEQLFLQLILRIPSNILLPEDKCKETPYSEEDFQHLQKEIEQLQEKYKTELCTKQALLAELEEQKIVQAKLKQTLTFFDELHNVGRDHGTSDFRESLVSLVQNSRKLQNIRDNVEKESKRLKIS
T4 sequence (looked up) 2: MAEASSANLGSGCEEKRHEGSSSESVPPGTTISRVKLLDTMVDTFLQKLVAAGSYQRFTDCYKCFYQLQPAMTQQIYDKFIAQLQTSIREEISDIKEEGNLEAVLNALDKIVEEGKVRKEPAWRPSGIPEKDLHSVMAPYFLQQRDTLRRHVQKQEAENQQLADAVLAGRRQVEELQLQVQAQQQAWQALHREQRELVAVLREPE
T4 sequence (looked up) 3: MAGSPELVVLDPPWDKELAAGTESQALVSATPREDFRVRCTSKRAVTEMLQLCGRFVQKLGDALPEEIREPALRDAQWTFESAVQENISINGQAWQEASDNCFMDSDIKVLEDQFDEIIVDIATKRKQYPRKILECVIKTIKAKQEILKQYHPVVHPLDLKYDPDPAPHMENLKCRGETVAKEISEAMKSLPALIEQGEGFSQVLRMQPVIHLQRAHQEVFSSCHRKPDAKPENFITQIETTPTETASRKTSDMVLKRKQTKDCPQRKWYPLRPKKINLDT
T4 sequence (looked up) 4: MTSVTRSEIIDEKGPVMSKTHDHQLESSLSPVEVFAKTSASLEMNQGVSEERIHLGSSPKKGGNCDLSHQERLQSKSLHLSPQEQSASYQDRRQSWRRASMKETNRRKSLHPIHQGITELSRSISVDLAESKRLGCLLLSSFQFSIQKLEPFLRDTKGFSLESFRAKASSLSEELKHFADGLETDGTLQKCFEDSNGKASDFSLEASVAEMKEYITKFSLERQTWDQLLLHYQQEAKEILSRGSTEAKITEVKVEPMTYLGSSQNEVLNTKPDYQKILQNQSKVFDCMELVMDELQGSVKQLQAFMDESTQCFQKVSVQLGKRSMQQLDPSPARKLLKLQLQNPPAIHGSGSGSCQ
The test is described as above.

Test [5] addresses T1, Mis12 complex (Mis12C), full length: …. Kind of test: BLI; Octet SA biosensors loaded with the biotinylated ligand, analyte at different concentrations; 25 °C; 50 mM HEPES pH 8.0, 150 mM NaCl, 2 mM TCEP, 0.05% Tween-20; which partner was loaded is not given.

B1: SPC24_(109–197)/SPC25_(92–224) dimer (complex, human)
chain 1: EELKEIEADLERQEKEVDEDTTVTIPSAVYVAQLYHQVSKIEWDYECEPGMVKGIHHGPSVAQPIHLDSTQLSRKFISDYLWSLVDTEW
chain 2: KKQELEVLTANIQDLKEEYSRKKETISTANKANAERLKRLQKSADLYKDRLGLEIRKIYGEKLQFIFTNIDPKNPESPFMFSLHLNEARDYEVSDSAPHLEGLAEFQENVRKTNNFSAFLANVRKAFTATVYN
notes: SPC25, human, residues 92–224 (RWD domain); GST was cleaved off with 3C protease; also called SPC24/SPC25 dimer; source: E. coli BL21(DE3)-codon-plus-RIPL, purified (glutathione-agarose, 3C protease, SEC)
B1: the binding result in test [1], in test [2] and in test [3] was “binds” in each case.

B2: full-length SPC24/SPC25 (complex, human)
chain 1: MAAFRDIEEVSQGLLSLLGANRAEAQQRRLLGRHEQVVERLLETQDGAEKQLREILTMEKEVAQSLLNAKEQVHQGGVELQQLEAGLQEAGEEDTRLKASLLQLTRELEELKEIEADLERQEKEVDEDTTVTIPSAVYVAQLYHQVSKIEWDYECEPGMVKGIHHGPSVAQPIHLDSTQLSRKFISDYLWSLVDTEW
chain 2: MVEDELALFDKSINEFWNKFKSTDTSCQMAGLRDTYKDSIKAFAEKLSVKLKEEERMVEMFLEYQNQISRQNKLIQEKKDNLLKLIAEVKGKKQELEVLTANIQDLKEEYSRKKETISTANKANAERLKRLQKSADLYKDRLGLEIRKIYGEKLQFIFTNIDPKNPESPFMFSLHLNEARDYEVSDSAPHLEGLAEFQENVRKTNNFSAFLANVRKAFTATVYN
notes: SPC24, human; SPC25, human; GST was cleaved off with 3C protease; also called SPC24/SPC25 heterodimer; SPC24/SPC25 pair; source: E. coli BL21(DE3)-codon-plus-RIPL, purified (glutathione-agarose, 3C protease, SEC)
With B2, the Kd in test [4] is ~46 nM. For the same molecule, in the test with Mis12C^M5 (NSL1 I216A), the “fold reduction of binding affinity against the wild-type pair” value is ~15 fold.

B3: KNL1 residues 2,026–2,342 (domain or fragment, human, UniProt Q8NG31 2026-2342, looked up)
chain: SAQNEREKLQIKIDEMDKILKKIDNCLTEMETETKNLEDEEKNNPVEEWDSEMRAAEKELEQLKTEEEELQRNLLELEVQKEQTLAQIDFMQKQRNRTEELLDQLSLSEWDVVEWSDDQAVFTFVYDTIQLTITFEESVVGFPFLDKRYRKIVDVNFQSLLDEDQAPPSSLLVHKLIFQYVEEKESWKKTCTTQHQLPKMLEEFSLVVHHCRLLGEEIEYLKRWGPNYNLMNIDINNNELRLLFSSSAAFAKFEITLFLSAYYPSVPLPSTIQNHVGNTSQDDIATILSKVPLENNYLKNVVKQIYQDLFQDCHFYH
notes: numbering of isoform 1 of the CASC5 gene; also called KNL1^WT; source: E. coli BL21(DE3)-Codon-plus-RIPL, purified (glutathione-agarose, TEV cleavage, SEC)
With B3, the Kd in test [5] was ~2 nM; in test [4], ~1.6 nM.

Source of the values: publication PMC11189300, “Structure of the human KMN complex and implications for regulation of its assembly” (Nature Structural & Molecular Biology, 2024).
